Assay results published in paper PMC2288786 (BMC Structural Biology, 2008).

Key:
Details in all cases: both partners purified
[1] = target: T1, calmodulin (recombinant, from the expression construct pETCM with vertebrate CaM cDNA) ( (vertebrate CaM cDNA), UniProt P0DP23 2-149); experiment: small-angle X-ray scattering (SAXS); CaM in solution with and without a 5-fold molar excess of the peptide, 5.4 to 140.0 mg/ml; X33 beamline, DESY
[2] = target: T1, calmodulin (recombinant, from the …); experiment: ITC; 1.0 mM MBP peptide injected into 0.10 mM CaM; 50 mM HEPES pH 7.5, 20 mM CaCl2; +25°C; fits: one site (peaks 2-7) and 4 sequential sites (peaks 2-20)
[3] = target: T1, calmodulin (recombinant, from the …); experiment: ITC; 1.0 mM MBP peptide injected into 0.10 mM CaM; 50 mM HEPES pH 7.5, 20 mM CaCl2; +30°C; fits: one site (peaks 2-7) and 4 sequential sites (peaks 2-20)
[4] = target: T1, calmodulin (recombinant, from the …); experiment: ITC; 1.0 mM MBP peptide injected into 0.10 mM CaM; 50 mM HEPES pH 7.5, 20 mM CaCl2; +35°C; fits: one site (peaks 2-7) and 4 sequential sites (peaks 2-20)
[5] = target: T1, calmodulin (recombinant, from the …); experiment: ITC; 1.0 mM MBP peptide injected into 0.10 mM CaM; 50 mM HEPES pH 7.5, 20 mM CaCl2; +40°C; fits: one site (peaks 2-7) and 4 sequential sites (peaks 2-20)
[6] = target: T1, calmodulin (recombinant, from the …); experiment: SPR; Biacore 3000; CaM immobilised by amine coupling (4000 RU); peptide 2.5-200 μM injected; 10 mM HEPES pH 7.5, 150 mM NaCl, 4 mM CaCl2, 0.005% P-20; 30 μl/min; two-state conformational change model; also 2-site model on equilibrium RU

B1: MBP peptide HKGFKGVDAQGTLSKIFKL, residues 138-156 of the human MBP 18.5 kDa isoform (peptide)
peptide: HKGFKGVDAQGTLSKIFKL
notes: myelin basic protein, human, 18.5-kDa isoform, residues 138-156; also called the peptide; myelin peptide; source: synthetic peptide, 95% purity; bought: Genemed Synthesis
B1 was tested, and the “stoichiometry N” value [1] was 1, the Kd [2] was 3.4 µM and the “Kd of the first binding event (4-site model)” value (shortened to “Kd of the first binding event”) [2] was 1 µM. For the same binder, the dH [2] was -1.47 ± 0.13 kcal/mol, the “dH of the first binding event (4-site model)” value (“dH of the first binding event” for short) [2] was -1.44 ± 0.04 kcal/mol and the “stoichiometry N” value [2] was 0.83 ± 0.23. The Kd [3] was 2.3 µM, the “Kd of the first binding event” value [3] was 1.1 µM and the dH [3] was -2.11 ± 0.06 kcal/mol. For the same binder, the “dH of the first binding event” value [3] was -2.07 ± 0.02 kcal/mol, the “stoichiometry N” value [3] was 0.67 ± 0.02 and the Kd [4] was 1.9 µM. For the same binder, the “Kd of the first binding event” value [4] was 1 µM, the dH [4] was -2.38 ± 0.1 kcal/mol and the “dH of the first binding event” value [4] was -2.34 ± 0.03 kcal/mol. The “stoichiometry N” value [4] was 0.63 ± 0.02, the Kd [5] was 25.9 µM and the “Kd of the first binding event” value [5] was 1.7 µM. The dH [5] was -1.09 ± 0.97 kcal/mol, the “dH of the first binding event” value [5] was -0.73 ± 0.05 kcal/mol and the “stoichiometry N” value [5] was 0.7 ± 0.17. The Kd [6] was 58 µM, the “Kd of the high-affinity binding event (2-site model, equilibrium RU)” value [6] was roughly 10 µM and the “Kd of the low-affinity binding event (2-site model, equilibrium RU)” value [6] was roughly 1000 µM.
